From patent US6972319B1, “Pituitary adenylate cyclase activating peptide (PACAP)receptor 3 (R3) agonists and their pharmacological methods of use” (priority 1999, dated 2005) come the findings set out here.

No end group written: not given here.

T1: PACAP-R3 (human, UniProt P41587 24-438)
T1 sequence (looked up): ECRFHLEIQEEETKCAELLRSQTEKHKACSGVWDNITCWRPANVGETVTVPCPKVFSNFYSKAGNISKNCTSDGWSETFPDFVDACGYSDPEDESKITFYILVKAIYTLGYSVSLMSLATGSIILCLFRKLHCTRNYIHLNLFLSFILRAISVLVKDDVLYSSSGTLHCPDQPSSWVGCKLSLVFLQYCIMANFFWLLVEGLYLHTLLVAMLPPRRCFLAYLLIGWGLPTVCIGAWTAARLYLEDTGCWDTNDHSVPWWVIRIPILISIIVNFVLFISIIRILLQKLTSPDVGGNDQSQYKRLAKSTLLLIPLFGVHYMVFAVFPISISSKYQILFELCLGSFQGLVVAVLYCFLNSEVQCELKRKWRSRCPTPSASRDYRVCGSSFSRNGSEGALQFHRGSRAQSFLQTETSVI

The experiment addresses T1, PACAP-R3. The experiment is described as follows: cell-based or functional assay.
On to HSDAVFTDNYTRLRKQVAAKKYLQSILKKR [R3P84], for which the “R3 EC50” value worked out at 0.06 nM and the “R3 Selectivity” value came to 40.
For the molecule HSDAVFTDNYTRLRKQMAFKKYLNSIKNKR [R3P100], the “R3 EC50” value worked out at 0.3 nM and the “R3 Selectivity” value came to 30.
With HSDAVFTDNYTRLRKQVAVKKYLQSILKK [R3P89], the “R3 EC50” value is 0.06 nM and the “R3 Selectivity” value was found to be 15.
On to HSDAVFTDNYTRLRKQVAVKKYLQSIKKKR [R3P80], for which the “R3 EC50” value worked out at 0.44 nM.
In the case of HSDGIFTDSYSRYRKQLAVKKYLAAVKK [R3P39], the “R3 EC50” value was 0.5 nM and the “R3 Selectivity” value came to 2.
Regarding HSDAVFTENYTKLRKQLAAKKYLNDLKK [R3P5], the “R3 EC50” value was 7 nM and the “R3 Selectivity” value turned out to be 30.
The like results for HSDGIFTDSYSRYRKQLAAKKYLADVKKGGT [R3P37] were, in that order, 4 nM and 18.
The like results for HSDAVFTDNYTRLRKQMAIKKYLNSIKNKR [R3P103] were, in that order, 0.05 nM and 8.
Take HSDAVFTDNYTRLRKQVAAKKYLQSILKK [R3P85]: the “R3 EC50” value came to 0.18 nM and the “R3 Selectivity” value came out at 30.
For HSDAVFTDNYTRLRKQVAAKKYLQSIKKKR [R3P77], in that order: 0.4 nM and 500.
On to HSDAVFTDNYTRLRKQVAVKKYLQSILKKR [R3P88], for which the “R3 EC50” value came to 0.08 nM and the “R3 Selectivity” value is 12.
On to HSDAVFTDNYTRLRKQVAAKKYLNSIKK [R3P62], for which the “R3 EC50” value was 1.8 nM and the “R3 Selectivity” value was determined as 100.
The like results for HSDAVFTDNYTRLRKQVAAKKYLQSIKNKRY [R3P66] were, in that order, 0.4 nM and 250.
On to HSDAVFTDNYTRLRKQVAAKKYLQSILNKRY [R3P92], for which the “R3 EC50” value is 0.02 nM and the “R3 Selectivity” value is 100.
On to HSDAVFTDNYTRLRKQVAAKKYLNSIKNKRY [R3P68], for which the “R3 EC50” value was found to be 0.5 nM.
As for HSDAVFTDNYTRLRKQMAAKKYLNTIKNKRY [R3P70], the “R3 EC50” value was found to be 0.4 nM and the “R3 Selectivity” value is above 250.
Regarding HSDAVFTDNYTRLRKQMAAHKYLNSIKNKRY [R3P73], the “R3 EC50” value was found to be 0.3 nM and the “R3 Selectivity” value turned out to be 170.
For HSDAVFTDNYTRLRKQVAVKKYLQSILKKRY [R3P87], in that order: 0.2 nM and 3.
Turning to HSDAVFTDNYTRLRKQMAAKHYLNSIKNKRY [R3P74], the “R3 EC50” value turned out to be 0.6 nM and the “R3 Selectivity” value stood at 150.
As for HSDAVFTDNYTRLRKQMAAKKYLQSIKNKRY [R3P69], the “R3 EC50” value came to 0.5 nM and the “R3 Selectivity” value was found to be 190.
For HSDAVFTDNYTRLRKQVAAKKYLQSILKKRY [R3P83], in that order: 0.08 nM and 60.
For HSDAVFTDNYTRLRKQVAAKKYLNSIKNKRY [R3P79], the “R3 EC50” value was determined as 0.5 nM.
For the molecule HSDAVFTDQYTRLRKQMAAKKYLNSIKNKRY [R3P71], the “R3 EC50” value was 0.09 nM and the “R3 Selectivity” value stood at 660.
For HSDAVFTDNYTRLRKQLAAKKYLNTIKNKRY [R3P67], in that order: 0.3 nM and 330.
The like results for HSDAVFTDNYTRLRKQVAVKKYLQSIKNKRY [R3P82] were, in that order, 0.4 nM and 23.
With HSDAVFTDNYTRLRKQMAKKKYLNSIKNKR [R3P104], the “R3 EC50” value was 0.2 nM and the “R3 Selectivity” value was 500.
For HSDGIFTDSYSRYRKQMAVKKYLAAVKK [R3P40], in that order: 0.7 nM and 2.
For HSDAVFTDNYTRLRKQVAAKKYLQSIKNK [R3P86], in that order: 0.8 nM and 110.
The like results for HSDAVFTDNYTRLRKQMAHKKYLNSIKNKR [R3P102] were, in that order, 60 nM and 5.
On to HSDAVFTDNYTRLRKQMALKKYLNSIKNKR [R3P105], for which the “R3 EC50” value worked out at 0.3 nM and the “R3 Selectivity” value was 3.
The like results for HSDAVFTDNYTRLRKQMAVKKYLNSIKK-NH2 [R3P8] were, in that order, 1.4 nM and 1.5.
The like results for HSDAVFTDNYTRLRKQMAEKKYLNSIKNKR [R3P99] were, in that order, 1 nM and 40.
For HSDAVFTDNYTRLRKQVAVKKYLQSIKKK [R3P81], in that order: 0.5 nM and 100.
As to HSDAVFTDNYTRLRKQMAAKKYLNSIKNKR [R3P65], the “R3 EC50” value is 0.6 nM and the “R3 Selectivity” value amounted to 130.
For HSDAVFTDQYTRLRKQLAAKKYLNTIKNKRY [R3P72], in that order: 0.16 nM and above 600.
For HSDAVFTDQYTRLRKQLAAHKYLNTIKNKRY [R3P75], in that order: 0.3 nM and above 500.
The like results for HSDAVFTDNYTRLRKQLAVKKYLNDILKGGT [R3P28] were, in that order, 7 nM and 1.
Take HSDAVFTDNYTRLRKQMAVKKYLNSIKKGGT [R3P9]: the “R3 EC50” value stood at 2 nM and the “R3 Selectivity” value was 20.
In the case of HSDAVFTDNYTRLRKQVAAKKYLQSILNKR [R3P93], the “R3 EC50” value stood at 0.14 nM and the “R3 Selectivity” value was determined as 40.
For HSDAVFTDNYTRLRKQMAGKKYLNSIKNKR [R3P101], in that order: 1 nM and 400.
As for HSDAVFTDNYTRLRKQVAAKKYLNSIKKKR [R3P78], the “R3 EC50” value was determined as 1.1 nM and the “R3 Selectivity” value was found to be 230.
For HSDAVFTDNYTRLRKQVAAKKYLQSILNK [R3P94], in that order: 0.09 nM and 100.
For HSDAVFTENYTKLRKQLAAKKYLNDLKKGGT [R3P3], in that order: 0.75 nM and 130.
For HSDAVFTENYTKLRKQLAAKKYLNDLLNGGT [R3P10], in that order: 11 nM and 0.3.
HSDGIFTDSYSRYRKQLAAKKYLADVKK [R3P38]: the “R3 EC50” value is 2.3 nM and the “R3 Selectivity” value amounted to 7.
